The labels stand for the following.
B1: HDV Ribozyme (parent)
chain: GGCCGGCAUGGUCCCAGCCUCCUCGCUGGCGCCGGCUGGGCAACAUUCCGAGGGGACCGUCCCCUCGGUAAUGGCGAAUGGGACCCA

In the series the parent is B1. The series is described as follows: self-cleavage, relative activity (ratio to wild type); higher = more cleavage; co-transcriptional.
As for GGCCGGCAUCGUCCCAGCCUCCGCGCUGGCGCCGGCUGGGCAACAUUCCGAGGGGACCGUCCCCUCGGUAAUGGCGAAUGGGACCCA, the self-cleavage amounted to 0.332. As to GGCCGGCAUGGUCCCAGCCUCCUCGCUGGCGCCGGCUGGGCAACAUUCUGAGGGGACCGUCCCCUCGGUAAUGGCGAAUGGGACCCC, the self-cleavage came to 1.05. For GGCCGGCAUGGUCCCAGCCUCCUCGCUGGUGCCGGCUGGGCAACAUUCCGAGGGGACCGUCCCCUCGGUAAUGGCGAGUGGGACCCA, the self-cleavage is 0.208.

GGCCGGCAUGGUCCCAGCCUCCUCGCUGGCGCCAGCUGGGCAACAUUCCGAGGGGACCGUCCCCUCGGUAAUGGCGAAUGGGACCUA: the self-cleavage is 0.176. In the case of GGCCGGCAUGGUCCCAGCCUCCUCGCUGGCGCCGGCUGGGCAACAUUCCGAGGGGACCGUUCCCUCGGUAAUGGUGAAUGGGACCCA it was 0.254; in that of GGCCGGCAUGGUCCCAGCCUCCUCGCUGGUGCCGGCUGGGCAACAUUCCGAGGGGACCGUCCCCUCGGUAAUGGCGAAAGGGACCCA, 0.293. In the case of GGCCGGCAUGGUCCCAGACUCCUCGCUGGCGCCGGCUGGGCAACAUUCCGAGGGAACCGUCCCCUCGGUAAUGGCGAAUGGGACCCA, the self-cleavage came out at 0.0314. Consider GGCCGGCAUGGUCCCAGCCUCCUCGCUGGAGCCGGCUGGGCAACAUUCCGAGGGGACCGUCCUCUCGGUAAUGGCGAAUGGGACCCA, for which the self-cleavage was 0.415. For GGCCGGCAUGGUCCCGGCCUCCUCGCUGGCGCCGGCUGGGCAACAUUCCGAGGGGACCGUCCCCUCGGUAAUGGCGUAUGGGACCCA, the self-cleavage turned out to be 0.266.

For the variant GGCCGGCACGGUCCUAGCCUCCUCGCUGGCGCCGGCUGGGCAACAUUCCGAGGGGACCGUCCCCUCGGUAAUGGCGAAUGGGACCCA, the self-cleavage was determined as 0.776. The figure for GGCCGGCAUGGUCCCAGCCUCCUCGCUGGCGCCUGCUGGGCAACAUUCCGAGGGGAUCGUCCCCUCGGUAAUGGCGAAUGGGACCCA is 0.174; for GGCCGGCAUGGUCCCAGCCUCCUCGCUGGCGCCGGCUGGGCAACAUUCCGAGGGGACCGGCCCCUCGCUAAUGGCGAAUGGGACCCA it is 0.965; for GGCCGGCAUGGUCCCAGCCUCCUCGCUCGCGCCGGCUGGGCAACAUUCCGAGGGGACCGUCCUCUCGGUAAUGGCGAAUGGGACCCA it is 0.0369. Take GGCCGGCAUGGUCCCAGCCUCCUCGCUGGAGCCGGCUGGGCAACAUUCCGAGGUGACCGUCCCCUCGGUAAUGGCGAAUGGGACCCA: the self-cleavage worked out at 0.5. Turning to GGCCGGCAUGGUCCCAGCCUCCUCGCUGGCGCCGGCUGGGCAACAUUCCGAGGGGACCGUCCCCUCGGCAAUGGCGAAUGGGACGCA, the self-cleavage is 0.988. The figure for GGCCGGCAUGGUCCCAGCCUCCUCGCUGGCGCCGGCUGGGCAACAUUCCGAGGGGACCGUCCCCUCGCUAAUGGCGAAUGGGACCGA is 1.07. In the case of GGCCGGCAUGGUCCCAGCCUCCUUGCUGGCGCCGGCUGGGCAACAUUCCUAGGGGACCGUCCCCUCGGUAAUGGCGAAUGGGACCCA it was 0.585; in that of GGCCGGCAUGGUCCCAGCCUUCUCGCUGGCACCGGCUGGGCAACAUUCCGAGGGGACCGUCCCCUCGGUAAUGGCGAAUGGGACCCA, 0.142. The figure for GGCCGGCAUAGUCCCAGCCUCGUCGCUGGCGCCGGCUGGGCAACAUUCCGAGGGGACCGUCCCCUCGGUAAUGGCGAAUGGGACCCA is 0.0171. Turning to GGCCGGCAUGGUCCCAGCCUCUUCGCUGGCGCCGGCUGGGCAACAUUCCGAGGGGACCGUCCCCUCGGUAAUGGCGGAUGGGACCCA, the self-cleavage came to 0.369. In the case of GGCCGGCAUGGUCCCAACCUCCUCGCUGGCGCCGGCUGGGCACCAUUCCGAGGGGACCGUCCCCUCGGUAAUGGCGAAUGGGACCCA it was 0.0369; in that of GGCCGGCAUGGUCCCAGCCUCCUCGCUGGCGCCGGCUGGGCGACAUUCGGAGGGGACCGUCCCCUCGGUAAUGGCGAAUGGGACCCA, 0.358; in that of GGCCGGCAUGGUCCCAGCCUCCUCGCUGGCGCCGGCUGGGCAACAUUCCGAGGCGACCGUCCCCUCGGUAAUGGCGAAUUGGACCCA, 0.206.

Turning to GGCCGGCAUGGUCCCAGCCUCCUCGCUGGCGCCGGCUGGGCAACAUUACGAGGGGACCGUCCCCUGGGUAAUGGCGAAUGGGACCCA, the self-cleavage was determined as 0.831. In the case of GGCCGGCAUGGUCCCAGCCUCCACGCUGGCGCCGGCUGGGCAACAUUCGGAGGGGACCGUCCCCUCGGUAAUGGCGAAUGGGACCCA, the self-cleavage is 1.16.

GGCCUGCAUGGUCCCAGCCUCCUCGCUGGCGCCGGCUGGGCAACAUUCCGAGGGGACCGUCACCUCGGUAAUGGCGAAUGGGACCCA: the self-cleavage was 0.369. GGCCGGCAUGGUCCCAGCCUCCUCGCUGGCUCCGGCUGGGCAACAUUCCGAGGGGACCUUCCCCUCGGUAAUGGCGAAUGGGACCCA: the self-cleavage came out at 0.617.

For the variant GGCCCGCAUGUUCCCAGCCUCCUCGCUGGCGCCGGCUGGGCAACAUUCCGAGGGGACCGUCCCCUCGGUAAUGGCGAAUGGGACCCA, the self-cleavage was found to be 0.115. For the variant GGCCGUCAUGGUCCCAGCCUCCUUGCUGGCGCCGGCUGGGCAACAUUCCGAGGGGACCGUCCCCUCGGUAAUGGCGAAUGGGACCCA, the self-cleavage was 0.133. The figure for GGCCGGCAUGGGGCCAGCCUCCUCGCUGGCGCCGGCUGGGCAACAUUCCGAGGGGACCGUCCCCUCGGUAAUGGCGAAUGGGACCCA is 0.639; for GGCCGGCAUGGUCCCAGCCUCCUCGCUGGCGCCGGCUGGGCAACAUUCCGAGGGGACCGUCCCCUCGGUACUGGCGAAUGGGGCCCA it is 0.582; for GGCCGGCAUUGUCCCAGCCUCCUCGCUGGCGCCGGCUGGGCAACAUUCCGAGGGGACCGUCCCCUCGGUAAUGGCGAAUGGGACCUA it is 0.867.
